Laboratory results published in the nanobody polyreactivity screen of Harvey et al. (2022).

Assay: yeast display, Sf9 membrane polyspecificity reagent, FACS + sequencing; frameworks hold sequencing errors
Procedure, shortened: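 Galactose-induced (36–48 hours) yeast carrying a synthetic nanobody display library were exposed to 10% biotinylated, detergent-solubilized Sf9 membrane reagent at 4 °C for 1 hour. FACS followed streptavidin microbead enrichment, using low and high (top ~1%) gates for expression (anti-HA) and reagent binding (streptavidin). Colony PCR, MiSeq 2 × 250 sequencing and CDR-length filtering followed. Labels for polyreactivity reflect the gate of origin.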

Row | Sequence | polyreactivity (PSR sort gate)
1 | QVQLVYSGGGLVQAGGSLRLSCAASGSTFQAYDMGWYRQAPGKERELVAAITTGGSTNYADSVKGRFTISRDNAKNTVYLQLNSLKPEDTAVYYCNADFIYVLYYVVLYDYWGQGTQVTVSS | low polyreactivity
2 | QVQLVESGGGLVQAGGSLRLSCAASGRIFRYYAMGWYRQAPGKERELVATISRSGGSTFYADSVKGRFTISRDNAKNTVYLQMKSLKPEDTAVYYCAADYYSYVVGRIYYWGQGTQVTVSS | high polyreactivity
3 | QGQLVESWGGLVQAGGSLRLSCAATRRTFLYYVMGWYRQAPGKETELVAAITNRGGSTYYADSVKGRFTISRDNAKNNVYVLMKSLKQEDTAVYYSNAPYGVYWSSTYYFWGQGTQVTVSS | high polyreactivity
4 | QVQLQESGGGLVQAGGSLRLSCAASGSIVVSVTMGWYRKAPGKESELVASIGRGSTTNHADSVKGRFTISRDNAKNIVDLLLNSLKPEDNAVYYCAALESYGKYHGYWGEGTQVTVSS | low polyreactivity
5 | QVQLVESGGGLVQAGGSLRLSCAASGFTFGPYDMGWYRQAPGKERELVAVIIGGDSTNYADSVKGRFTISRDNAKYTVYLQMNSLKPEDTAVYYCAADYIDRVGWMDYWGQGTQVTVSS | low polyreactivity
6 | QVQLVESGGGLVQAGGSLRLSCAASGSIFGENAMGWYRQAPGKERELVAAITWSGASTYYADSVKGRFTISRDNAKNTVYLQMNSLKPEETAVYYCNADRYVRYSTFDYWGQGTQVTVSS | high polyreactivity
7 | QVQLVESGGGLVQAGGSLRLSCAASGRIFVRYAMGWYRQAPGKERELVATITKNGGRTYYADSVKGRFTISRDNAKNTVYLQMNSLKPEDTAVYYCAARPTYVADHLRYGYWGQGTQVTVSS | high polyreactivity
8 | QVQLVESGGGLVQAGGSLRLSCAASGIFGWNAMGWYRQAPGKEREFVAGITYSGTRTYYADSVKGRFTISRDNAKNTVYLQMNSLKPEDPAVYYCAATTGHRNYRSYYWGQGTQVTVSS | high polyreactivity
9 | QVQLVESGGGLVQAGGSLRLSSAASGSSFYRYAMGSYRQAPGKERELVATITRSGGSTYYADSVKGRFTISRDNAKNTVYLQMNSLKPEDTAVYYCAARGWYKSDYWGQGTQVTVSS | low polyreactivity
10 | QVQLVESGGGLVQAGGSLRLSCAASGNTFVPYAMGWYRQAPGKERELVAAISWRGGSTYYADSVKGRFTISRDNAKNTVYLQMNSLKPEDTAVYYCAARTFYRPGLAGGYWGQGTQVTVSS | high polyreactivity
11 | QVQLVESGGGLVQAGGSLRLSCAASGIIIRYYGMGWYRQAPGKERELVARIRWTGGSTYYADSVKGRFTISRDNAKNTVYLQMNSLKPEDTAVYYCAAAWWSYKFNRDFDYWGQGTQVTVSS | low polyreactivity
12 | QVQLVESGGGLVQAGGSLRLSCAASGITFAQYAMGWYRQAPGKEREVVAGITRSGGSTHYADSVKGRFTISRDNAKNTVYLQMNSLKPEDTAVYYCNARYPYRGKRKPSDYWGQGTQVTVSS | high polyreactivity
13 | QVQLVESGGGLVQAGGSLRLSCAASGSIFGYYAMGWYRQAPGKERELVASISGSGGTTYFADSVKGRFTISRDNAKNTVYLQMNSLKPEDTAVYYCAARRSIYGYPFVTSRRGYWGQGTQVTVSS | high polyreactivity
14 | QVQLVEAGGGLVQAGGSLRLSCAASGRIFYQNTMGWYIQAPGKERELVAAISKSGGRTYYADSVKGRFTISRDNAKNTVYLQMNSLKPEDTAVYYCDQGYASEMDYWGQVTQVTVSS | high polyreactivity
15 | QVQLVESGGGLVQAGGSLRLSCAASGRTFQVNSMGWYRQAPGKERELVAALTKRGGSTSYADSVKGRFTFSRDNANNTFYLQMNSLIPEDTAVYYCNVDYWGQGTQVTLSS | low polyreactivity
16 | QVQLVESGGGLVQAGGSLRLSCAASGSIFGGYGMGWYRQAPGKERELVAAITSGSSTYYADSVTGRFTISRDNAKNTVYLQMNSLKPEDTAVYYCAARPYPHSAYEGDYWGRGTQVTVSS | low polyreactivity
17 | PVQLVESGGGLDQAGGSLRLTCAASGSIFYYNAKGWYRQSPGKERELVAAISSDGGTYYADSVKARFTISRDNAKKTVYLQMNSLKPEDTAVYYCAASQPSTYDYWGQGTQLTVSS | high polyreactivity
18 | QVQLVESGGGLVQAGGSLRLSCAASGITFIAYTMGWYRQAPGKERELVAGISRNGGRTYYADSVKGRFTISRDNAKNTVYLQMNSLKPEDTAVYYCNKVVSTYSSIKYDYWGQGTQVTVSS | high polyreactivity
19 | QVQLVESGGGLVQAGGSLRLSCAASGFIFRKYAMGWFRQAPGKERELVAAISRGGGSTYYADSVKGRFTISRDNAKNTVYLQMNSLKPEDTAVYYCAVGIVQRDSRYYYWGQGTQVTVSS | high polyreactivity
20 | QVQLVESGGGLVQAGGSLRLSCAASGRTFSWYAMGWYRPAPGQERELVAAITYSGGNTYYADSVKGRFTISRDNAKNTVYLQMNSLKPEDTAVYYCAKYGVTGQGSWSQRMGYWGQGTQVTVSS | high polyreactivity
21 | QVQLVESGGGLVQAGGSLRLSCAASGSIFFTNAKGLSRQAPGKERELVAAITSSGTRTYYADSVKGRFTISRDNAKNTVYLQKNSLKPEDTAVYYCAVEVQYKYDYSHTYRYYYWGQGSQVTVSS | high polyreactivity
22 | QVQLVESGGGLVQAGGSLRLSCAASGSIFVGYDMGWYRQAPGKEREWVAAITSSGGGSTYYADSVKGRFTISRDNAKNTVYLQMNSLKPEDTAVYYCAARTSLWWFLKYDYWGQGTQVTVSS | low polyreactivity

Row | Sequence | polyreactivity (PSR sort gate)
23 | QVQLVESGGGLVQAGGSLRLSCAASGSIFYRYAMGWYREAPGKERELVAAISSSGGSTYYADSVKGRFTISRDNAKNTVYSQMNSLKPEDTAVYYCNTDRYYTYDYWGQGTQVTVSS | low polyreactivity
24 | QVQLVESGGGLVQAGGSLRLSCAASGFIFTIYAMGWYRQAPGKERELVAAITWNGGRTYYADSVKGRFTISRDNAKNTVYLQMNSLKPEDTAVYYCAARYGRAYDYWGQGTQVTVSS | high polyreactivity
25 | QVQLVESGGGLVQAGGSLRLSCAASGRTFGGNAMGWYRQAPGKERELVAAITVSAGHTYYADSVKGRFTISRDNAKNTVYLQMNSLKPEDTAVYYCAAGVPYYWSYVWKHPRYDHWGQGTQVTVSS | low polyreactivity
26 | QVQLVESGGGLVQAGGSLRLSCAASGFIFTYYAMGWYRQAPGKERELVAAISSRGTSTYYADSVKGRFTISRDNAKNTVYLQMNSLKPEDTAVYYCAAGKPKIPDDDYWGQGTQVTVSS | high polyreactivity
27 | QVQLVESGGGLVQAGGSLRLSCAASGRTLTRYAMGWYRQAPGKERELVATISRCGSTNYADSVKGRFTISRDNGKNTVYLQMNSLKPEDTAVYYCAARGRLTAEFDYWGQGTQVTVSS | low polyreactivity
28 | QVQLVESGGGLDQAGGSLRLSCAASGSIFQDYAMGWYRQAPGKERELVAAITKSGVSTYYADSVKGRFTISRDNAKNTVYLQMNSLKPEDTAVYYCAAPRYVRYHRGYGFDYWGQGTQVTVSS | low polyreactivity
29 | QVQLVESGGGLVQAGGSLRLSCAASGSTFFGNAMGWYRQAPGKERELVAAITSGGSTNYADSVKGRFTISRDNAKNTVYLQMNSLKPEDTAVYYCAKEYHYYYWGQGTQVTVSS | low polyreactivity
30 | QVQLVESGGGLVQAGGSLRLSCAASGRIIAVNAKGWYRQAPGKERELVAAINGGGSTNYADSVKGRFTISRDNAKNTVYLQMNSLKPEDTAVYYCAADVGWRSQTRGYYWGQGTQVTVSS | high polyreactivity
31 | QVQLVESGGGLVQAGGSLRLSCAASGRTFVFYAMGWYRPAPGKERQLVAAITSGTSTNYADSVKGRFTISRDNAKNTGYLQMNSLNPEDTAVYYCAAYWTDLTYSIGFGYWGQGTQVTVSS | low polyreactivity
32 | QVQLVESGGGLVQAGGSLRLSCAASGRILATYTKGWYRPAPGKERELVATITSGGRTTYADSVKGRFTISRDNAKNTVYLQMNSLKPEDTAVYYCNVAYWYYRKYRPLWGRDYYWGQGTQVTVSS | high polyreactivity
33 | QVQLVESGGGLVQAGGSLRLSCAASGRTFFFNAMGWYRQAPGKERELVARISSSGRTNYADSVKGRFTISRDNAKNTVYLQMNSLKPEDTAVYYCAAGRYGLYKSDRSPEYGYWGQGTQVTVSS | high polyreactivity
34 | QVQLVESGGGLVQAGGSLRLSCAASGIIISYYAMGWYRQAPGTERELVAAINWNGDSTHYADSVKGRFTISRDNAKNTVYLKMNSLKPEDTAVYYCAAGYTPDTRCHYGTHDMDYWGQGTQVTVSS | low polyreactivity
35 | QFQLVESGGGLVQAGGSHRLSCAASGRIFSYYAMGWYRQAPGNERELVATITSGGNTNYADSVKGRFTISLDNAKNTVYLQMNSLKPEDTAVYYCKAAERQWYDAYDYWGQGTQVTVSS | low polyreactivity
36 | QVQLEESGGGLVQAGGSLRLSCAASGLTFRIYAMGWYRQAPGKERELVAAISYRGGSTYYADSVKGRFTISRDNAKNTVSLQMNSLKPEDTAVYYCAAGFVLNGIRYDFWGQGTQLTVSS | high polyreactivity
37 | QVHLVESGGGLVQAGGRLRLSCAASGFIFWSNAMRWYRQAPGKERELVAAITWNGGDTYYADSVKGRFTISRDNAKNTVYLQMNSLKPEDTAVFYCAAVPSRRARYDYWGQGTQVTVSS | low polyreactivity
38 | QVQLVESGGGLVQAGGSLRLSCAASGSIFGANGMGWYRQAPGKESELVAASTSGGSTTYADYVKGRFTISRDNAKNTVYLQINSLKPEDTAVYYCAADECTPYWPVDNFDYWGQGTQVTVSS | low polyreactivity
39 | QVQLVESGGGLVQAGGSLRLSCAASGIIFYAYAMGWYRQAPGKERELVAAITFSAVSTYYADSVKGRFTISRDNAKNTVYLQMNSLKPEDTAVYYCAVDREWPGYYYAISKMYYWGQGTQVTVSS | low polyreactivity
40 | QVELVESGGGLVLAGGSLRLSCADSGRTFSYYAMGWYRQAPGKERELVAVITSSGGSTSYADSVKGRFTISRDNAKNTVYLQMNSLKPEDTAVYDCAADPLAVYWAYYLIGVYYWGQGTQVTVSS | high polyreactivity
41 | QVQLVESGGGLVQAGGSLRLSCAASGRTFSGYPMGWYRPAPGKERELVAAISWSGGSTYYADSVKGRFTISRDNAKNTVYLQMNSLKPEDTAVYYCAAYTYSFRANHDYWGQGTQVTVSS | high polyreactivity
42 | QVQLVESGGGLLQAGGSLRLSCAASGRTFGFYTMGWYRQAPGKERELVAGISRGGSTTYADSVKGRFTISRDNAKKTVYVEMNSLKQEDTAVYYSNADRSHYWLPYGVRFDYWGLGTQVTVSS | low polyreactivity
43 | QVQLVESGGGLVQAGGSLRLSCAASGSTFHTYDMGWYRQAPGKERELVAAITSGGDTNYADSVKGRFTISRDNAKNTVYLQMNSLKPEDTAVYYCNTDRWGTGKLRYNYWGQGTQVTVSS | low polyreactivity
